The results in this text go back to publication PMC3734082 (The Journal of Cell Biology, 2013).

Numbering of substitutions follows the chain as printed.

One experiment has as its target T1, MBP-CHC(1–1074)-His6 (UniProt Q00610 1-1074).
T1 sequence (looked up): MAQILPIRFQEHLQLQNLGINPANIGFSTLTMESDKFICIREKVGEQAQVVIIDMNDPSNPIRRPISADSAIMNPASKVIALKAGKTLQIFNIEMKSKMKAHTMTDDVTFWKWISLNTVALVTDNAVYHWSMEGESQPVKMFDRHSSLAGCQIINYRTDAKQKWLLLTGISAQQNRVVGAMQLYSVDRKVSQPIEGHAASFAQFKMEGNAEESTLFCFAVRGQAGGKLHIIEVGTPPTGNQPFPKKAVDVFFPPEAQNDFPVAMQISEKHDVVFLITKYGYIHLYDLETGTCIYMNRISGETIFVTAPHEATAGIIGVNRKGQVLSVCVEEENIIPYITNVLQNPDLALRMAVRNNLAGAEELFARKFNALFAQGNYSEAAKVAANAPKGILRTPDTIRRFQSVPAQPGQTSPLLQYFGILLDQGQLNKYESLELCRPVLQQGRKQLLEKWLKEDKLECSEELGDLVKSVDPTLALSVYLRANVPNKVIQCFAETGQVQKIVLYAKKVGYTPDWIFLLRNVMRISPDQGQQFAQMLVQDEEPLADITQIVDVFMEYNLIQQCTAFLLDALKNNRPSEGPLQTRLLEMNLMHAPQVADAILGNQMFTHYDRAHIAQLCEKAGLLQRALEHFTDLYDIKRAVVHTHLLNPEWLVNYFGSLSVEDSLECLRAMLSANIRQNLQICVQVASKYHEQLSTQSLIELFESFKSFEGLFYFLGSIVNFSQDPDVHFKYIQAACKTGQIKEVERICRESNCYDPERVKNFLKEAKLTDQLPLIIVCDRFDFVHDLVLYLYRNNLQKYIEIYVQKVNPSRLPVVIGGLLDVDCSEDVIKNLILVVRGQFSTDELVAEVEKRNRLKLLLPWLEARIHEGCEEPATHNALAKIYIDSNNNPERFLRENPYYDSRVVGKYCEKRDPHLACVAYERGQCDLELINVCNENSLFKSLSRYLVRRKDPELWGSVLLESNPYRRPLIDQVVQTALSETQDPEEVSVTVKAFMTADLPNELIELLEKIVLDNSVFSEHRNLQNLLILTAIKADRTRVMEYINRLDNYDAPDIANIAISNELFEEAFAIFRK
Briefly: pull-down.

The target of experiment [1] is T2, MBP-CHC(1–1074)-His6 C+ mutant (UniProt Q00610 1-1074, T87A | Q89A | K96E | K98E).
T2 sequence (looked up): T1 sequence (looked up) with T87A, Q89A, K96E, K98E
Nature of the experiment: pull-down.

B1: GST-TACC3-His6, phosphorylated with Aurora A/TPX2 (natural protein)
chain: not shown
modifications: phosphorylated in vitro with Aurora A/TPX2 (phosphoserine at 558, pS558)
B1: the binding result (with MBP-CHC(1–1074)-His6; in experiment [1]) was “binds” each time.
